# Several values for one entry are separate records, joined by “and”; a condition that tells them apart may be missing. Equal values may be shown once.
# T1: human prolactin receptor (human, UniProt P16471 25-622)
# T1 sequence (looked up): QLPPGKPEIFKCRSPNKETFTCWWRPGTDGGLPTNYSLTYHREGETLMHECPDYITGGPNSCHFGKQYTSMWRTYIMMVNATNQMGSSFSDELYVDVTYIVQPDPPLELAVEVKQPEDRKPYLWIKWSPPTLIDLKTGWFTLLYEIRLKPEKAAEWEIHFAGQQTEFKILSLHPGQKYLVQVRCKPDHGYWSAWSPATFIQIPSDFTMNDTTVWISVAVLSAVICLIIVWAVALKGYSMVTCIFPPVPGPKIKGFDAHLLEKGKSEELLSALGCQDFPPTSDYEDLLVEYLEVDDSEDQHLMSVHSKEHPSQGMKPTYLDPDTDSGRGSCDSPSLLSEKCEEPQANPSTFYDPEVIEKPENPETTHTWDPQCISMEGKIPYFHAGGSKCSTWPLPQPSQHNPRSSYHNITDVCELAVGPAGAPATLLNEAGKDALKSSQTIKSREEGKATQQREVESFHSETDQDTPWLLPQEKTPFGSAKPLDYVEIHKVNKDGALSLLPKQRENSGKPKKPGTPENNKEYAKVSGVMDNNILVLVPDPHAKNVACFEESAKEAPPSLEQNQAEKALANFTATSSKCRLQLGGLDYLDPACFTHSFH
# B1: human prolactin (ligand, UniProt P01236 29-227, looked up)
# chain: LPICPGGAARCQVTLRDLFDRAVVLSHYIHNLSSEMFSEFDKRYTHGRGFITKAINSCHTSSLATPEDKEQAQQMNQKDFLSLIVSILRSWNEPLYHLVTEVRGMQEAPEAILSKAVEIEEQTKRLLEGMELIVSQVHPETKENEIYPVWSGLPSLQMADEESRLSAYYNLLHCLRRDSHKIDNYLKLLKCRIIHNNNC
# Target: T1, human prolactin receptor
# Test: cell-based or functional assay
molecule,measurement,value
G129R variant of human prolactin (from UniProt P01236 29-227) (ligand),T47-D cell proliferation (96 well MTS assay) (molar ratio hPRL-G129R:hPRL),1 and 2
same,"apoptosis (DNA fragmentation, TUNEL assay) in T-47D cells",1
same,tyrosine phosphorylation of STAT proteins in T47-D cells (anti-phosphotyrosine immunoblot) (ratio hPRL-G129R:hPRL),5
B1,"apoptosis (DNA fragmentation, TUNEL assay) in T-47D cells",4 ratio hPRL:G129R

# From patent US20030022833A1 (GREENVILLE HOSPITAL SYSTEM, published 2003)
